Source: US20210247395A1

Target: NP binding epitope peptide of human Influenza B, residues 31-43 of Nucleoprotein (…) (Influenza B virus (strain B/Lee/1940))
Assay: ELISA on overlapping peptides of NP (strain B/Lee/1940)

Acris mAb 3IF18-InB12, clone InB12 (murine anti-Influenza B nucleoprotein monoclonal antibody)
OD492 nm: > 0.4 OD492 nm

GenWay mAb GWB-T00595, clone B265M (murine anti-Influenza B nucleoprotein monoclonal antibody)
OD492 nm: > 0.4 OD492 nm
